From PMC12022045 (Nature Communications, 2025) come the findings set out here.

The target of test [1] is T1, MED15-ABD3 (human, UniProt Q96RN5-2 453-561).
T1 sequence (looked up): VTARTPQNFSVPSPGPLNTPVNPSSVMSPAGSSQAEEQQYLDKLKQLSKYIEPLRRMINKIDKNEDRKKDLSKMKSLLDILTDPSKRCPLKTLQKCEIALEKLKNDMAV
The test can be described thus: NMR titration.

For another test, the target named is T2, TAFH (human, UniProt O00268 582-678).
T2 sequence (looked up): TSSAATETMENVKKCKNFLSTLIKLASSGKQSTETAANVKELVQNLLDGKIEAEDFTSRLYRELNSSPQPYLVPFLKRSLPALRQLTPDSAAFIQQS
The test can be described thus: NMR titration.

Test [2] deals with T1, MED15-ABD3. Kind of test: SPR.

On to FLTWL [FLTWL pentapeptide], for which the binding result with MED15-ABD3 [1] and in the test with TAFH was “binds” throughout.

B1: YAP-TAD (domain or fragment, human, UniProt P46937 450-504, looked up)
chain: GTNVDLGTLEGDGMNIEGEELMPSLQEALSSDILNDMESVLAATKLDKESFLTWL
As for B1, the dissociation constant Kd in the test with MED15-ABD3 [2] came to 160 ± 54.3 nM.

Consider SDILNDMESVLAATK [α-helix-based peptide SDILNDMESVLAATK], for which the binding result with TAFH is given as “binds”.
